Ten molecules from patent US20110223178A1 (Human Genome Sciences, published 2011) can be followed below.

B1: IgG1 antibody comprising the VH and VL domains of scFv F003A09 (antibody, V domains shown)
VH: QVQLVQSGAEVKKAGSSVKVSCKASGDTFSNFAISWVRQAPGHGLEWVGGIIPVFNTADYAQNFTDRVTISADKATKTVYMELRSLRSDDTAVYFCARTKIELDNDAFDIWGQGTLVTVSS
VL: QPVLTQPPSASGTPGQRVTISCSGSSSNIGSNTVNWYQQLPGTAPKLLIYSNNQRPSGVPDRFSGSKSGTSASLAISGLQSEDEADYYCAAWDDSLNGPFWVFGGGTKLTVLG
notes: Whole IgG1
B2: IgG1 antibody comprising the VH and VL domains of scFv F003F01 (antibody, V domains shown)
VH: EVQLVQSGAEVRKPASSVKVSCKTSGGSFNDYSFNWVRQAPGQGLEWMGSIIPVFDMADYGQNFQGRLTITADESTTTAYMELSDLTPMDTAIYYCARVAMVGATHFDIWGQGTLVTVSS
VL: QSVLTQPPSASGTPGQRVTISCSGGSSNIGSNPVNWYQQVPGTAPKLLIYLSDQRPAGVPDRFSGSKSGTSASLAISGLQSEDEADYYCSTWDDSLNDPVVFGGGTKVTVLG
notes: IgG1; The printed VL start (142) looks late against the printed VL CDR1 (159-171)
B3: IgG1 antibody comprising the VH and VL domains of scFv F002G03 (antibody, V domains shown)
VH: QVQLVQSGAEVKKPGSSVKVSCKASGGTFNRYAISWVRQAPGQGLEWMGGIIPMFATPIYSQKFQDRVTITADESTSTAYMELSSLRSEDTAVYYCARDRTDYYDTDGYQSPDSWGKGTLVTVSS
VL: DIQMTQSPSTLSASIGDRVTITCRASQGINNYLAWYQQKPGRAPKLLIYAASSLQSGVPSRFSGSGSGTDFTLTISSLQPEDFATYYCLQDSDYPLTFGGGTKLEIKR
notes: Whole IgG1
B4: IgG1 antibody comprising the VH and VL domains of scFv F003F09 (antibody, V domains shown)
VH: EVQLVQSGAEVRKPGSSVKVSCKASGDTFNNFAISWVRQAPGHGLEWVGGIIPVFNTADYAQNFTGRVTISADKATKTVYMELRSLRYDDTAVYFCARTKIELDNDAFDIWGRGTTVTVSS
VL: LPVLTQPPSASGTPGQRVTISCSGSTSNIGSNAVVWYQQLPGAAPKLLIYSNDQRPSGVPDRFSGSRSGTSASLAISGLQSEDEADYYCAAWDDSRDGPWVFGGGTKVTVLG
notes: Whole IgG1
B5: IgG1 antibody comprising the VH and VL domains of scFv F076F10 (antibody, V domains shown)
VH: EVQLVQSGAEVKKPGSSVKVFCKTSGGTFSSYAFGWVRQRPGQGLEWMGGIIPNFDAANYAQKFQDTVAFTADTSTNTLYLELSSLTSDDTAVYYCAREVGVHASGLGAFDIWGRGTLVTVSS
VL: QSVLTQPPSVSGAPRQRVTISCSGSSSNIGDNVVNWYQQLPGKAPKLLIYYDDLLPSGVSDRFSGSKSGTSASLAISGLQSEDEADYFCAAWDDSLDAYVFGTRTKVTVLG
notes: Whole IgG1; also called F0076F10
B6: IgG1 antibody comprising the VH and VL domains of scFv F081C09 (antibody, V domains shown)
VH: QVQLVQSGAEVKKPGSSVRVSCKASGGSFSDYAIHWVRQAPGQGLEWMGGIIPIFGTANYAQKFQGRVTITADESTSTAYMELSSLRSEDTAVYYCAREAQYDDAFDIWGQRTMVTVSS
VL: QSVLTQPPSVSAAPGQKVTISCSGSTSNIGNNYVSWYQQHPGKAPKLMIYDVSKRPSGVPDRFSGSKSGNSASLDISGLQSEDEADYYCAAWDDSLSEFLFGTGTKLTVLG
notes: Whole IgG1; also called F0081C09
B7: IgG1 antibody comprising the VH and VL domains of scFv F076G06 (antibody, V domains shown)
VH: QMQLVQSGAEVRKPGSSVKVSCKASGDTFNNFAISWVRQAPGHGLEWVGGIIPVFNTADYAQNFTGRVTISADKATKTVYMELRSLRYDDTAVYFCARTKIELDNDAFDIWGQGTMVTVSS
VL: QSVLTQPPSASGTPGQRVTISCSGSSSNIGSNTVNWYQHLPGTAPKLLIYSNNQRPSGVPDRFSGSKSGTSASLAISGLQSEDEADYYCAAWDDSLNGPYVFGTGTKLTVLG
notes: IgG1
B8: IgG1 antibody comprising the VH and VL domains of scFv F076C06 (antibody, V domains shown)
VH: QVQLVQSGPEVKKPGSSVKVSCRASGGTFSTYAFSWVRQAPGQGLEWMGGIIPVFETPIYAQKLQGRLTITADTSTDTAYMELSNLRSGDTAVYYCAREWGDYYSSVSSGALHYWGRGTLVTVSS
VL: QAVLTQPSSASGTPGQRVTISCSGSSSNIGNNAVNWYQQLPGTAPKLLIYNNNQWPSGVPDRFSGSKSGTSASLAVSGLQSEDEADYYCAAWDDSLNGYVFGTGTQLTVLS
notes: IgG1
B9: IgG1 antibody comprising the VH and VL domains of scFv F002C08 (antibody, V domains shown)
VH: EVQLVESGAEVKKPGSSVKVSCKASGGTFSSYAISWVRQAPGQGLEWMGGIIPIFGTANYAQKFQGRVTITADESTSTAYMELSSLGSEDTAVYYCARESLTGDSELDLWGKGTLVTVSS
VL: QSVLTQPPSVSAAPGQKVTISCSGSTSNIGNNYVSWYQQHPGKAPKLMIYDVSKRPSGVPDRFSGSKSGNSASLDISGLQSEDEADYYCAAWDDSLSEFLFGTGTKLTVLG
notes: IgG1
B10: IgG1 antibody comprising the VH and VL domains of scFv F002D02 (antibody, V domains shown)
VH: EVQLVQSGAEVKKPGSSVKVSCKASGGTFSSYAISWVRQAPGQGLEWMGGIIPIFGTANYAQKFQGRVTITADESTSTAYMELSSLRSEDTAVYYCAREDIVGAVDGFDIWGRGTLVTVSS
VL: QSVLTQPPSVSAAPGQKVTISCSGSTSNIGNNYVSWYQQHPGKAPKLMIYDVSKRPSGVPDRFSGSKSGNSASLDISGLQSEDEADYYCAAWDDSLSEFLFGTGTKLTVLG
notes: IgG1

For the first experiment, the target named is T1, Chemokine beta-4 (CK-β4) (human, UniProt P78556 27-96, 125I label in the CCR6 membrane binding assay (Example 5)).
T1 construct: also called CCL20; MIP-3α
T1 sequence (P78556 27-96 limits assumed): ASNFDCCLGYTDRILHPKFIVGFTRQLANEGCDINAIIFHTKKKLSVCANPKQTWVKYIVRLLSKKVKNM
The experiment can be described thus: inhibition of 125I-CK-β4 binding to CCR6 membranes by IgG1, Expt 1. The protocol:
(§1) The ability of anti-CK-β4 antibodies of the invention to inhibit the binding of CK-β4 to CCR6 may be tested in the following assay. This assay is performed in 96-well plates and each sample is tested in triplicate. A 1:3 serial dilution of anti-CK-β4 antibody is made starting with 200 nM solution of anti-CK-β4 antibody in binding buffer (50 mM HEPES, pH7.0, 5 mM MgCl₂, 1 mM CaCl₂, 0.5% protease free BSA, 0.033% CHAPS, 0.05% Tween 20, 0.05% sodium azide). To fifty microliters of each dilution of antibody are added 25 microliters of CCR6 membranes (40 micrograms/ml in binding buffer; available from Upstate Biotechnology, Charlottesville, Va. Catalog number 50-139M.) Lastly 25 microliters of ¹²⁵I-CK-β4 (0.8 nM in binding buffer) are added to the wells containing the mixture of antibody and membranes, making for a 100 microliter reaction volume. Total binding is measured using 50 microliters of binding buffer in lieu of 50 microliters of antibody dilution.
(§2) The reaction is incubated for 3 hours at room temperature. The plates are harvested in a Tomtec Cell Harvester. The reaction is washed through a filtermat B (Perkin Elmer Life Sciences, Inc. Boston, Mass. product Number 1450-521) presoaked in 0.3% polyethylamine using an ice cold wash buffer (25 mM Hepes, 5 mM MgCl₂, 1 mM CaCl₂, 0.5M NaCl, and 0.05% Tween 20). The filter is then dried and radioactivity bound to the filter is measured using a Wallac MicroBeta Trilux (Perkin Elmer Life Sciences, Inc.).
As a reminder, the EC50 is the concentration at which the effect is half-maximal. The molecule B1 registered a concentration giving a half-maximal response (EC50) of 0.3 nM.

B2 came in with an EC50 of 0.2 nM.

With B3, the midpoint of the response, the EC50, lay at 4.1 nM.

Another experiment has as its target T1, Chemokine beta-4 (CK-β4). The experiment can be described thus: inhibition of 125I-CK-β4 binding to CCR6 membranes by IgG1, Expt 2. The protocol: as §1, §2
With B4, the half-maximal effective concentration (EC50) stood at 2.4 nM.

The molecule B5 had an EC50 of 0.49 nM.

On to B6, for which the concentration giving a half-maximal response (EC50) is 0.09 nM.

Another experiment deals with T1, Chemokine beta-4 (CK-β4). As to the kind of experiment: inhibition of 125I-CK-β4 binding to CCR6 membranes by IgG1, Expt 3. The method, then:
as §1, §2
B7 came in with an EC50 of 1.7 nM.

Molecule B1 registered a concentration for a half-maximal effect (EC50) of 0.46 nM.

B8 showed an EC50 of 1.8 nM.

Consider B9, for which it took 2.2 nM to reach a half-maximal effect (EC50).

B10: the midpoint of the response, the EC50, lay at 4.5 nM.

In turn, B2 yielded an EC50 of 0.13 nM.
